Laboratory results reported in PMC10580122, “Human IL-35 Inhibits the Bioactivity of IL-12 and Its Interaction with IL-12Rβ2” (ImmunoHorizons, 2023).

Molecular target: T1, recombinant human IL-12Rβ1 (human, UniProt P42701 24-545)
T1 construct: human IL-12 receptor subunit beta-1, recombinant; also called rIL-12Rβ1; source: bought: Sino Biological (11674-H08H)
Assay: ELISA; solid-phase binding assay; wells coated with rIL-12Rβ1, rIL-12Rβ2 or no IL-12R chain; IL-12 or IL-12p40 monomer alone or with IL-35, each cytokine fixed at 5 μg/ml; overnight at 4°C; detected with anti-IL-12 or anti-IL-12p40 and HRP
Settings: both partners purified

binding result: binds
B1: Human IL-12 (complex)
chain 1: RNLPVATPDPGMFPCLHHSQNLLRAVSNMLQKARQTLEFYPCTSEEIDHEDITKDKTSTVEACLPLELTKNESCLNSRETSFITNGSCLASRKTSFMMALCLSSIYEDLKMYQVEFKTMNAKLLMDPKRQIFLDQNMLAVIDELMQALNFNSETVPQKSSLEEPDFYKTKIKLCILLHAFRIRAVTIDRVMSYLNAS
chain 2: IWELKKDVYVVELDWYPDAPGEMVVLTCDTPEEDGITWTLDQSSEVLGSGKTLTIQVKEFGDAGQYTCHKGGEVLSHSLLLLHKKEDGIWSTDILKDQKEPKNKTFLRCEAKNYSGRFTCWWLTTISTDLTFSVKSSRGSSDPQGVTCGAATLSAERVRGDNKEYEYSVECQEDSACPAAEESLPIEVMVDAVHKLKYENYTSSFFIRDIIKPDPPKNLQLKPLKNSRQVEVSWEYPDTWSTPHSYFSLTFCVQVQGKSKREKKDRVFTDKTSATVICRKNASISVRAQDRYYSSSWSEWASVPCS
notes: p35 subunit of human IL-12 (IL-12p35); linked to p40 via a disulfide bond; p40 subunit of human IL-12 (IL-12p40); linked to p35 via a disulfide bond; Bought heterodimer of p35 and p40; also called exogenous human IL-12; source: bought: PeproTech (200-12H)
